# Measured values: paper doi:10.1101/2021.10.11.463801 (2021)
# T1: JIP4[1-103] (human, UniProt O60271-1 1-103)
# T1 chain: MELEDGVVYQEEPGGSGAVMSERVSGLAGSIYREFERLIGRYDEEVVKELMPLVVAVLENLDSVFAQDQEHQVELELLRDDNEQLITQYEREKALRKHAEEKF
# B1: DLIC1[388-523] (domain or fragment)
# chain: PTAAGRPVDASPRVPGGSPRTPNRSVSSNVASVSPIPAGSKKIDPNMKAGATSEGVLANFFNSLLSKKTGSPGGPGVSGGSPAGGAGGGSSGLPPSTKKSGQKPVLDVHAELDRITRKPVTVSPTTPTSPTEGEAS
# Target: T1, JIP4[1-103]
# Assay: ITC
binder,measurement,value
B1,Kd,4.5 µM
